Measurements as given in patent US20200297818A1 (ZEALAND PHARMA A S, published 2020).
*1 amine or outer side, *2 acyl side, *3 side chain or, on linkers, in order; H or OH if unused. Side-chain parts run from the residue outwards. [ ]: non-standard residue; d: D form. The star is where a group is joined. C20 diacid = O=C(O)CCCCCCCCCCCCCCCCCCC(=O)*; γGlu = O=C(O)[C@H](CCC(=O)[*:2])N[*:1]; AEEA = NCCOCCOCC(=O)O; Aib = CC(C)(N)C(=O)O

T1: human GLP-2 receptor (hGLP2-R) (human, UniProt O95838 1-553)
T1 sequence (looked up): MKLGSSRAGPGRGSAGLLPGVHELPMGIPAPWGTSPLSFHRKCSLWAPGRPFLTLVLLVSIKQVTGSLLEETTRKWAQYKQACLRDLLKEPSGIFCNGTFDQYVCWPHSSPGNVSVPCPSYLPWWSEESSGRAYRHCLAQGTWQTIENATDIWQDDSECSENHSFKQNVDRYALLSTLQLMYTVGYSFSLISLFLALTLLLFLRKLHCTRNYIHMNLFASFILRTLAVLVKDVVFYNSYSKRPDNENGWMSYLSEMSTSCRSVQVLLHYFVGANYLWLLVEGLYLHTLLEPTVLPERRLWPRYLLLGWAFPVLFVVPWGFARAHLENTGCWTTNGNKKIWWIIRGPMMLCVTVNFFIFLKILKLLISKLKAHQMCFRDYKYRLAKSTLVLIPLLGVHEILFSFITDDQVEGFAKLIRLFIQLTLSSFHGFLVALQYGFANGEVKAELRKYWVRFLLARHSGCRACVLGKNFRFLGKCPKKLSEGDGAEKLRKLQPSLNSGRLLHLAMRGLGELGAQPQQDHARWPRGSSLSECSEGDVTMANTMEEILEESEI


Legend:
[1] = molecular target: T1, human GLP-2 receptor (hGLP2-R); test: cell-based or functional assay
[2] = molecular target: human glucagon-like peptide 1 receptor (GLP-1 R) (human, UniProt P43220 24-463); test: cell-based or functional assay

Binder	EC50 GLP-2 (nM); cAMP response [1]	EC50 GLP-1 (nM); cAMP response [2]
H-H[Aib]EGSFTSEK([AEEA-AEEA-γGlu-C20 diacid])ATILDEQAARDFIAWLIEHKITD-OH (SMILES CC[C@H](C)[C@H](NC(=O)[C@H](Cc1ccccc1)NC(=O)[C@H](CC(=O)O)NC(=O)[C@H](CCCNC(=N)N)NC(=O)[C@H](C)NC(=O)[C@H](C)NC(=O)[C@H](CCC(N)=O)NC(=O)[C@H](CCC(=O)O)NC(=O)[C@H](CC(=O)O)NC(=O)[C@H](CC(C)C)NC(=O)[C@@H](NC(=O)[C@@H](NC(=O)[C@H](C)NC(=O)[C@H](CCCCNC(=O)COCCOCCNC(=O)COCCOCCNC(=O)CC[C@H](NC(=O)CCCCCCCCCCCCCCCCCCC(=O)O)C(=O)O)NC(=O)[C@H](CCC(=O)O)NC(=O)[C@H](CO)NC(=O)[C@@H](NC(=O)[C@H](Cc1ccccc1)NC(=O)[C@H](CO)NC(=O)CNC(=O)[C@H](CCC(=O)O)NC(=O)C(C)(C)NC(=O)[C@@H](N)Cc1c[nH]cn1)[C@@H](C)O)[C@@H](C)O)[C@@H](C)CC)C(=O)N[C@@H](C)C(=O)N[C@@H](Cc1c[nH]c2ccccc12)C(=O)N[C@@H](CC(C)C)C(=O)N[C@H](C(=O)N[C@@H](CCC(=O)O)C(=O)N[C@@H](Cc1c[nH]cn1)C(=O)N[C@@H](CCCCN)C(=O)N[C@H](C(=O)N[C@H](C(=O)N[C@@H](CC(=O)O)C(=O)O)[C@@H](C)O)[C@@H](C)CC)[C@@H](C)CC) [Compound 42]	0.33 nM	0.067 nM
H-H[Aib]EGTFTSELATILDK([γGlu-C20 diacid])QAARDFIAWLIQHKITD-OH [Compound 41]	0.62 nM	0.048 nM
HXEGTFTSELATILDEQAARDFIAWLIAHKITDXXXXXXX (HELM PEPTIDE1{H.[Aib].E.G.T.F.T.S.E.L.A.T.I.L.D.E.Q.A.A.R.D.F.I.A.W.L.I.A.H.K.I.T.D.[dK].[dK].[dK].[dK].[dK].[dK].[am]}|PEPTIDE2{[O=C(O)CCCCCCCCCCCCCCCCC(=O)[*:2]].[gGlu]}$PEPTIDE1,PEPTIDE2,39:R3-2:R2$$$V2.0; SMILES CC[C@H](C)[C@H](NC(=O)[C@H](CC(C)C)NC(=O)[C@H](Cc1c[nH]c2ccccc12)NC(=O)[C@H](C)NC(=O)[C@@H](NC(=O)[C@H](Cc1ccccc1)NC(=O)[C@H](CC(=O)O)NC(=O)[C@H](CCCNC(=N)N)NC(=O)[C@H](C)NC(=O)[C@H](C)NC(=O)[C@H](CCC(N)=O)NC(=O)[C@H](CCC(=O)O)NC(=O)[C@H](CC(=O)O)NC(=O)[C@H](CC(C)C)NC(=O)[C@@H](NC(=O)[C@@H](NC(=O)[C@H](C)NC(=O)[C@H](CC(C)C)NC(=O)[C@H](CCC(=O)O)NC(=O)[C@H](CO)NC(=O)[C@@H](NC(=O)[C@H](Cc1ccccc1)NC(=O)[C@@H](NC(=O)CNC(=O)[C@H](CCC(=O)O)NC(=O)C(C)(C)NC(=O)[C@@H](N)Cc1c[nH]cn1)[C@@H](C)O)[C@@H](C)O)[C@@H](C)O)[C@@H](C)CC)[C@@H](C)CC)C(=O)N[C@@H](C)C(=O)N[C@@H](Cc1c[nH]cn1)C(=O)N[C@@H](CCCCN)C(=O)N[C@H](C(=O)N[C@H](C(=O)N[C@@H](CC(=O)O)C(=O)N[C@H](CCCCN)C(=O)N[C@H](CCCCN)C(=O)N[C@H](CCCCN)C(=O)N[C@H](CCCCN)C(=O)N[C@H](CCCCN)C(=O)N[C@H](CCCCNC(=O)CC[C@H](NC(=O)CCCCCCCCCCCCCCCCC(=O)O)C(=O)O)C(N)=O)[C@@H](C)O)[C@@H](C)CC) [Compound 39]	0.98 nM	0.044 nM
HXEGSFTSELATILDEQAARDFIAWLIEHKITDXXXXXXX (HELM PEPTIDE1{H.[Aib].E.G.S.F.T.S.E.L.A.T.I.L.D.E.Q.A.A.R.D.F.I.A.W.L.I.E.H.K.I.T.D.[dK].[dK].[dK].[dK].[dK].[dK].[am]}|PEPTIDE2{[O=C(O)CCCCCCCCCCCCCCCCC(=O)[*:2]].[gGlu]}$PEPTIDE1,PEPTIDE2,39:R3-2:R2$$$V2.0; SMILES CC[C@H](C)[C@H](NC(=O)[C@H](Cc1ccccc1)NC(=O)[C@H](CC(=O)O)NC(=O)[C@H](CCCNC(=N)N)NC(=O)[C@H](C)NC(=O)[C@H](C)NC(=O)[C@H](CCC(N)=O)NC(=O)[C@H](CCC(=O)O)NC(=O)[C@H](CC(=O)O)NC(=O)[C@H](CC(C)C)NC(=O)[C@@H](NC(=O)[C@@H](NC(=O)[C@H](C)NC(=O)[C@H](CC(C)C)NC(=O)[C@H](CCC(=O)O)NC(=O)[C@H](CO)NC(=O)[C@@H](NC(=O)[C@H](Cc1ccccc1)NC(=O)[C@H](CO)NC(=O)CNC(=O)[C@H](CCC(=O)O)NC(=O)C(C)(C)NC(=O)[C@@H](N)Cc1c[nH]cn1)[C@@H](C)O)[C@@H](C)O)[C@@H](C)CC)C(=O)N[C@@H](C)C(=O)N[C@@H](Cc1c[nH]c2ccccc12)C(=O)N[C@@H](CC(C)C)C(=O)N[C@H](C(=O)N[C@@H](CCC(=O)O)C(=O)N[C@@H](Cc1c[nH]cn1)C(=O)N[C@@H](CCCCN)C(=O)N[C@H](C(=O)N[C@H](C(=O)N[C@@H](CC(=O)O)C(=O)N[C@H](CCCCN)C(=O)N[C@H](CCCCN)C(=O)N[C@H](CCCCN)C(=O)N[C@H](CCCCN)C(=O)N[C@H](CCCCN)C(=O)N[C@H](CCCCNC(=O)CC[C@H](NC(=O)CCCCCCCCCCCCCCCCC(=O)O)C(=O)O)C(N)=O)[C@@H](C)O)[C@@H](C)CC)[C@@H](C)CC) [Compound 40]	0.5 nM	0.074 nM

Second part, the binder after the results:

EC50 GLP-2 (nM); cAMP response [1]	EC50 GLP-1 (nM); cAMP response [2]	Binder
0.15 nM	0.096 nM	H-H[Aib]EGSFTSELATILDK([AEEA-AEEA-γGlu-C20 diacid])KAARDFIAWLIEHKITD-OH (SMILES CC[C@H](C)[C@H](NC(=O)[C@H](Cc1ccccc1)NC(=O)[C@H](CC(=O)O)NC(=O)[C@H](CCCNC(=N)N)NC(=O)[C@H](C)NC(=O)[C@H](C)NC(=O)[C@H](CCCCN)NC(=O)[C@H](CCCCNC(=O)COCCOCCNC(=O)COCCOCCNC(=O)CC[C@H](NC(=O)CCCCCCCCCCCCCCCCCCC(=O)O)C(=O)O)NC(=O)[C@H](CC(=O)O)NC(=O)[C@H](CC(C)C)NC(=O)[C@@H](NC(=O)[C@@H](NC(=O)[C@H](C)NC(=O)[C@H](CC(C)C)NC(=O)[C@H](CCC(=O)O)NC(=O)[C@H](CO)NC(=O)[C@@H](NC(=O)[C@H](Cc1ccccc1)NC(=O)[C@H](CO)NC(=O)CNC(=O)[C@H](CCC(=O)O)NC(=O)C(C)(C)NC(=O)[C@@H](N)Cc1c[nH]cn1)[C@@H](C)O)[C@@H](C)O)[C@@H](C)CC)C(=O)N[C@@H](C)C(=O)N[C@@H](Cc1c[nH]c2ccccc12)C(=O)N[C@@H](CC(C)C)C(=O)N[C@H](C(=O)N[C@@H](CCC(=O)O)C(=O)N[C@@H](Cc1c[nH]cn1)C(=O)N[C@@H](CCCCN)C(=O)N[C@H](C(=O)N[C@H](C(=O)N[C@@H](CC(=O)O)C(=O)O)[C@@H](C)O)[C@@H](C)CC)[C@@H](C)CC) [Compound 43]
0.14 nM	0.063 nM	H-H[Aib]EGSFTSELATILEGK([AEEA-AEEA-γGlu-C20 diacid])AARDFIAWLIEHKITD-OH [Compound 44]
0.36 nM	1.4 nM	H-H[Aib]EGSFTSELATILDEQAAK([AEEA-AEEA-γGlu-C20 diacid])DFIAWLIEHKITD-OH (SMILES CC[C@H](C)[C@H](NC(=O)[C@H](Cc1ccccc1)NC(=O)[C@H](CC(=O)O)NC(=O)[C@H](CCCCNC(=O)COCCOCCNC(=O)COCCOCCNC(=O)CC[C@H](NC(=O)CCCCCCCCCCCCCCCCCCC(=O)O)C(=O)O)NC(=O)[C@H](C)NC(=O)[C@H](C)NC(=O)[C@H](CCC(N)=O)NC(=O)[C@H](CCC(=O)O)NC(=O)[C@H](CC(=O)O)NC(=O)[C@H](CC(C)C)NC(=O)[C@@H](NC(=O)[C@@H](NC(=O)[C@H](C)NC(=O)[C@H](CC(C)C)NC(=O)[C@H](CCC(=O)O)NC(=O)[C@H](CO)NC(=O)[C@@H](NC(=O)[C@H](Cc1ccccc1)NC(=O)[C@H](CO)NC(=O)CNC(=O)[C@H](CCC(=O)O)NC(=O)C(C)(C)NC(=O)[C@@H](N)Cc1c[nH]cn1)[C@@H](C)O)[C@@H](C)O)[C@@H](C)CC)C(=O)N[C@@H](C)C(=O)N[C@@H](Cc1c[nH]c2ccccc12)C(=O)N[C@@H](CC(C)C)C(=O)N[C@H](C(=O)N[C@@H](CCC(=O)O)C(=O)N[C@@H](Cc1c[nH]cn1)C(=O)N[C@@H](CCCCN)C(=O)N[C@H](C(=O)N[C@H](C(=O)N[C@@H](CC(=O)O)C(=O)O)[C@@H](C)O)[C@@H](C)CC)[C@@H](C)CC) [Compound 45]
